The target in test [1] is T1, c-Myc conjugated and biotinylated human CD28 stalk region dimeric peptide (wild-type) (human, C-terminal biotin; Cysteine at position 141 (CD28 numbering) forms the disulfide linkage of the dimer).
T1 construct: the Methods describe only this biotinylated dimeric peptide design, so it is used here; also called Biotin conjugated CD28 stalk region dimeric peptide; WT peptide
T1 peptide: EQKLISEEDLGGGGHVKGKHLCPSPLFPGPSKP
As to the kind of experiment: direct ELISA, WT stalk dimeric peptide on neutravidin plate, VHH 0.2-5 µg/mL. On the procedure: (§1) Biotin conjugated wild-type or L145K CD28 stalk region dimeric peptides were immobilized on neutravidin coated ELISA maxi-sorb plates. A dilution series of VHH clones (0.2-5 μg/mL) and an irrelevant VHH clone (top left chart) was performed and detection of bound VHH was done with anti His tag-HRP conjugated antibody and development was done with TMB.

The target of test [2] is T2, L145K mutated biotinylated and Myc tagged human CD28 stalk region dimeric peptide (human, C-terminal biotin; Cysteine at position 141 (CD28 numbering) forms the disulfide linkage of the dimer).
T2 construct: also called L145K CD28 stalk region dimeric peptide; mutant peptide
T2 peptide: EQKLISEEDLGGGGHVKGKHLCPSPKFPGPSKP
Kind of test: direct ELISA, peptide on neutravidin plate, anti His tag-HRP. On the procedure:
as §1
(An ELISA detects its analyte on a solid surface through an enzyme-linked reagent.)

In test [3] the target is T1, c-Myc conjugated and biotinylated human …. As to the kind of experiment: phage library screen by ELISA and flow cytometry against recombinant CD28 extracellular domain and the dimeric stalk region peptide.
The target in test [4] is T3, membranal human CD28 (human, UniProt P10747 19-220).
T3 construct: also called mCD28; HEK cells overexpressing human CD28
Kind of test: FACS, FITC conjugated VHH on HEK cells overexpressing CD28. For orientation: Flow cytometry measures light scatter and fluorescence of single cells or particles in a stream.

B1: VHH clone 4A4 (VHH)
VHH: EVQLVESGGGLVQAGGSLRLSCAASGSLFSINAMAWYRQAPGKQRELVAAITSSGSTNYANSVKGRFTVSRDNAKNTMYLQMNSLKPEDTAVYYCVVDEYGSDYWIWGQGTQVTVSS
notes: Produced recombinantly in CHO cells
Take B1: the binding result in test [1] is “binds”; in test [2], “no binding (tested: 0.2-5 µg/mL)”.

B2: VHH clone 4A1 (VHH)
VHH: QVQLVESGGGLVQAGGSLRLSCAASGSIFSINAMGWYRQAPGKQRERVAAITSGGSTNYADSVKGRFTISRDNAKNTVYLQMNNLEPRDAGVYYCVVDLYGEDYWIWGQGTQVTVSS
notes: as for B1
B2: the binding result in test [1] was “binds”; in test [2], “no binding (tested: 0.2-5 µg/mL)”.

B3: VHH clone 2A1 (VHH)
VHH: EVQLVESGGGLVQAGESLRLSCAASGSIASINAMGWYRQAPGSQRELVAAISGGGDTYYADSVKGRFTISRDNAKTTVYLQMNSLRPEDTAVYYCVVDLYGSDYWDWGQGTQVTVSS
modifications: FITC conjugated in the FACS assay of FIG. 6
notes: Produced recombinantly in CHO cells; from a naive llama VHH phage library; The printed text reads 'EVOLVESGGG' (probably Q); also called VHH #2A1
As for B3, the binding result in test [2] is recorded as “no binding (tested: 0.2-5 µg/mL)”; in test [3], “binds”; in test [4], “binds”.
